Results from the supplement of paper PMC5998384.

How the values were obtained:
[1] = test system: HeLa Kyoto; assay: thermal stability score vs G1/S (z-score of summed log2 fold changes over temperatures); higher = more thermally stable than in G1/S
[2] = test system: HeLa Kyoto; assay: solubility change mitosis vs G1/S (difference of NP-40 vs SDS log2 ratios) (log2 ratio difference); higher = more soluble in mitosis
[3] = test system: HeLa Kyoto; assay: melting temperature (median over replicates), in situ; higher = more thermally stable
[4] = test system: HeLa Kyoto; assay: solubility in G1/S (NP-40 vs SDS abundance) (log2 ratio); higher = more soluble; details: cell cycle stage: G1/S
[5] = cell cycle stage: early G1 (4.5 h after nocodazole release)
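Throughout, for melting temperature (median over replicates), in situ: HeLa Kyoto cells synchronized by double thymidine or nocodazole block, proteins quantified by TMT10plex mass spectrometry, three independent biological replicates.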
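Throughout, for solubility change mitosis vs G1/S (difference of NP-40 vs SDS log2 ratios): synchronized HeLa Kyoto cells (double thymidine block for G1/S, nocodazole release for mitosis), protein amounts in NP-40 versus SDS lysates quantified by mass spectrometry, three biological replicates.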
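Throughout, for solubility in G1/S (NP-40 vs SDS abundance): HeLa Kyoto cells arrested at G1/S by double thymidine block, proteins quantified by TMT10plex mass spectrometry in mild NP-40 versus SDS extracts, three biological replicates.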
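Throughout, for thermal stability score vs G1/S (z-score of summed log2 fold changes over temperatures): synchronized HeLa Kyoto cells, proteins quantified by TMT10plex mass spectrometry, three biological replicates, mitosis taken 0.5 h after nocodazole release, G1/S directly after double thymidine block.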

Sequence | thermal stability score [1, 5] | thermal stability score ([1]; cell cycle stage: mitosis) | solubility change mitosis (log2) [2] | melting temperature ([3]; cell cycle stage: G1/S) | melting temperature ([3]; cell cycle stage: mitosis) | solubility in G1/S (log2) [4]
MGILSITDQPPLVQAIFSRDVEEVRSLLSQKENINVLDQERRTPLHAAAYVGDVPILQLLLMSGANVNAKDTLWLTPLHRAAASRNEKVLGLLLAHSADVNARDKLWQTPLHVAAANRATKCAEALAPLLSSLNVADRSGRSALHHAVHSGHLETVNLLLNKGASLNVCDKKERQPLHWAAFLGHLEVLKLLVARGADLGCKDRKGYGLLHTAAASGQIEVVKYLLRMGAEIDEPNAFGNTALHIACYLGQDAVAIELVNAGANVNQPNDKGFTPLHVAAVSTNGALCLELLVNNGADVNYQSKEGKSPLHMAAIHGRFTRSQILIQNGSEIDCADKFGNTPLHVAARYGHELLISTLMTNGADTARRGIHDMFPLHLAVLFGFSDCCRKLLSSGQLYSIVSSLSNEHVLSAGFDINTPDNLGRTCLHAAASGGNVECLNLLLSSGADLRRRDKFGRTPLHYAAANGSYQCAVTLVTAGAGVNEADCKGCSPLHYAAASDTYRRAEPHTPSSHDAEEDEPLKESRRKEAFFCLEFLLDNGADPSLRDRQGYTAVHYAAAYGNRQNLELLLEMSFNCLEDVESTIPVSPLHLAAYNGHCEALKTLAETLVNLDVRDHKGRTALFLATERGSTECVEVLTAHGASALIKERKRKWTPLHAAAASGHTDSLHLLIDSGERADITDVMDAYGQTPLMLAIMNGHVDCVHLLLEKGSTADAADLRGRTALHRGAVTGCEDCLAALLDHDAFVLCRDFKGRTPIHLASACGHTAVLRTLLQAALSTDPLDAGVDYSGYSPMHWASYTGHEDCLELLLEHSPFSYLEGNPFTPLHCAVINNQDSTTEMLLGALGAKIVNSRDAKGRTPLHAAAFADNVSGLRMLLQHQAEVNATDHTGRTALMTAAENGQTAAVEFLLYRGKADLTVLDENKNTALHLACSKGHEKCALMILAETQDLGLINATNSALQMPLHIAARNGLASVVQALLSHGATVLAVDEEGHTPALACAPNKDVADCLALILSTMKPFPPKDAVSPFSFSLLKNCSIAAAKTVGGCGALPHGASCPYSQERPGAIGLDGCYSE [ANKRD52] | -0.0695 | 0.105 | -0.171 | 51.5 °C | 49.7 °C | -0.0981
MGIQTSPVLLASLGVGLVTLLGLAVGSYLVRRSRRPQVTLLDPNEKYLLRLLDKTTVSHNTKRFRFALPTAHHTLGLPVGKHIYLSTRIDGSLVIRPYTPVTSDEDQGYVDLVIKVYLKGVHPKFPEGGKMSQYLDSLKVGDVVEFRGPSGLLTYTGKGHFNIQPNKKSPPEPRVAKKLGMIAGGTGITPMLQLIRAILKVPEDPTQCFLLFANQTEKDIILREDLEELQARYPNRFKLWFTLDHPPKDWAYSKGFVTADMIREHLPAPGDDVLVLLCGPPPMVQLACHPNLDKLGYSQKMRFTY [CYB5R1] | -0.825 | -0.661 | -0.041 | 54.1 °C | 55.3 °C | 0.339
MGKAAAPSRGGGCGGRSRGLSSLFTVVPCLSCHTAAPGMSASTSGSGPEPKPQPQPVPEPERGPLSEQVSEAVSEAVPRSEPVSETTSEPEPGAGQPSELLQGSRPGSESSSGVGAGPFTKAASEPLSRAVGSATFLRPESGSLPALKPLPLLRPGQAKTPLGVPMSGTGTTSSAPLALLPLDSFEGWLLKWTNYLKGYQRRWFVLGNGLLSYYRNQGEMAHTCRGTINLSTAHIDTEDSCGILLTSGARSYHLKASSEVDRQQWITALELAKAKAVRVMNTHSDDSGDDDEATTPADKSELHHTLKNLSLKLDDLSTCNDLIAKHGAALQRSLTELDGLKIPSESGEKLKVVNERATLFRITSNAMINACRDFLELAEIHSRKWQRALQYEQEQRVHLEETIEQLAKQHNSLERAFHSAPGRPANPSKSFIEGSLLTPKGEDSEEDEDTEYFDAMEDSTSFITVITEAKEDSRKAEGSTGTSSVDWSSADNVLDGASLVPKGSSKVKRRVRIPNKPNYSLNLWSIMKNCIGRELSRIPMPVNFNEPLSMLQRLTEDLEYHHLLDKAVHCTSSVEQMCLVAAFSVSSYSTTVHRIAKPFNPMLGETFELDRLDDMGLRSLCEQVSHHPPSAAHYVFSKHGWSLWQEITISSKFRGKYISIMPLGAIHLEFQASGNHYVWRKSTSTVHNIIVGKLWIDQSGDIEIVNHKTNDRCQLKFLPYSYFSKEAARKVTGVVSDSQGKAHYVLSGSWDEQMECSKVMHSSPSSPSSDGKQKTVYQTLSAKLLWKKYPLPENAENMYYFSELALTLNEHEEGVAPTDSRLRPDQRLMEKGRWDEANTEKQRLEEKQRLSRRRRLEACGPGSSCSSEEEKEADAYTPLWFEKRLDPLTGEMACVYKGGYWEAKEKQDWHMCPNIF [OSBP2] | -0.699 | -0.707 | -0.137 | 50.7 °C | 51 °C | 0.0107
MGKEQELLEAARTGHLPAVEKLLSGKRLSSGFGGGGGGGSGGGGGGSGGGGGGLGSSSHPLSSLLSMWRGPNVNCVDSTGYTPLHHAALNGHKDVVEVLLRNDALTNVADSKGCYPLHLAAWKGDAQIVRLLIHQGPSHTRVNEQNNDNETALHCAAQYGHTEVVKVLLEELTDPTMRNNKFETPLDLAALYGRLEVVKMLLNAHPNLLSCNTKKHTPLHLAARNGHKAVVQVLLDAGMDSNYQTEMGSALHEAALFGKTDVVQILLAAGTDVNIKDNHGLTALDTVRELPSQKSQQIAALIEDHMTGKRSTKEVDKTPPPQPPLISSMDSISQKSQGDVEKAVTELIIDFDANAEEEGPYEALYNAISCHSLDSMASGRSSDQDSTNKEAEAAGVKPAGVRPRERPPPPAKPPPDEEEEDHIDKKYFPLTASEVLSMRPRIHGSAAREEDEHPYELLLTAETKKVVLVDGKTKDHRRSSSSRSQDSAEGQDGQVPEQFSGLLHGSSPVCEVGQDPFQLLCTAGQSHPDGSPQQGACHKASMQLEETGVHAPGASQPSALDQSKRVGYLTGLPTTNSRSHPETLTHTASPHPGGAEEGDRSGARSRAPPTSKPKAELKLSRSLSKSDSDLLTCSPTEDATMGSRSESLSNCSIGKKRLEKSPSFASEWDEIEKIMSSIGEGIDFSQERQKISGLRTLEQSVGEWLESIGLQQYESKLLLNGFDDVHFLGSNVMEEQDLRDIGISDPQHRRKLLQAARSLPKVKALGYDGNSPPSVPSWLDSLGLQDYVHSFLSSGYSSIDTVKNLWELELVNVLKVQLLGHRKRIIASLADRPYEEPPQKPPRFSQLRCQDLLSQTSSPLSQNDSCTGRSADLLLPPGDTGRRRHDSLHDPAAPSRAERFRIQEEHREAKLTLRPPSLAAPYAPVQSWQHQPEKLIFESCGYEANYLGSMLIKDLRGTESTQDACAKMRKSTEHMKKIPTIILSITYKGVKFIDASNKNVIAEHEIRNISCAAQDPEDLCTFAYITKDLQTSHHYCHVFSTVDVNLTYEIILTLGQAFEVAYQLALQAQKSRATGASAAEMIETKSSKPVPKPRVGVRKSALEPPDMDQDAQSHASVSWVVDPKPDSKRSLSTN [ANKS1A] | 0.94 | 1.51 | -0.0097 | 49.9 °C | 50.1 °C | 0.191
MGKKGKKEKKGRGAEKTAAKMEKKVSKRSRKEEEDLEALIAHFQTLDAKRTQTVELPCPPPSPRLNASLSVHPEKDELILFGGEYFNGQKTFLYNELYVYNTRKDTWTKVDIPSPPPRRCAHQAVVVPQGGGQLWVFGGEFASPNGEQFYHYKDLWVLHLATKTWEQVKSTGGPSGRSGHRMVAWKRQLILFGGFHESTRDYIYYNDVYAFNLDTFTWSKLSPSGTGPTPRSGCQMSVTPQGGIVVYGGYSKQRVKKDVDKGTRHSDMFLLKPEDGREDKWVWTRMNPSGVKPTPRSGFSVAMAPNHQTLFFGGVCDEEEEESLSGEFFNDLYFYDATRNRWFEGQLKGPKSEKKKRRRGRKEEPEGGSRPACGGAGTQGPVQLVKEVVAEDGTVVTIKQVLTAPGSAGQPRSEDEDSLEEAGSPAPGPCPRSNAMLAVKHGVLYVYGGMFEAGDRQVTLSDLHCLDLHRMEAWKALVEMDPETQEWLEETDSEEDSEEVEGAEGGVDDEDSGEESGAED [KLHDC4] | -0.0688 | -0.148 | -0.00461 | 49.7 °C | 48.9 °C | -0.239
MGKKYKNIVLLKGLEVINDYHFRMVKSLLSNDLKLNLKMREEYDKIQIADLMEEKFRGDAGLGKLIKIFEDIPTLEDLAETLKKEKLKVKGPALSRKRKKEVDATSPAPSTSSTVKTEGAEATPGAQKRKKSTKEKAGPKGSKVSEEQTQPPSPAGAGMSTAMGRSPSPKTSLSAPPNSSSTENPKTVAKCQVTPRRNVLQKRPVIVKVLSTTKPFEYETPEMEKKIMFHATVATQTQFFHVKVLNTSLKEKFNGKKIIIISDYLEYDSLLEVNEESTVSEAGPNQTFEVPNKIINRAKETLKIDILHKQASGNIVYGVFMLHKKTVNQKTTIYEIQDDRGKMDVVGTGQCHNIPCEEGDKLQLFCFRLRKKNQMSKLISEMHSFIQIKKKTNPRNNDPKSMKLPQEQRQLPYPSEASTTFPESHLRTPQMPPTTPSSSFFTKKSEDTISKMNDFMRMQILKEGSHFPGPFMTSIGPAESHPHTPQMPPSTPSSSFLTTKSEDTISKMNDFMRMQILKEGSHFPGPFMTSIGPAESHPHTPQMPPSTPSSSFLTTLKPRLKTEPEEVSIEDSAQSDLKEVMVLNATESFVYEPKEQKKMFHATVATENEVFRVKVFNIDLKEKFTPKKIIAIANYVCRNGFLEVYPFTLVADVNADRNMEIPKGLIRSASVTPKINQLCSQTKGSFVNGVFEVHKKNVRGEFTYYEIQDNTGKMEVVVHGRLTTINCEEGDKLKLTCFELAPKSGNTGELRSVIHSHIKVIKTRKNKKDILNPDSSMETSPDFFF [IFI16] | 3.09 | 5.43 | 0.318 | 46.8 °C | 49.1 °C | -0.293
MGKLRRRYNIKGRQQAGPGPSKGPPEPPPVQLELEDKDTLKGVDASNALVLPGKKKKKTKAPPLSKKEKKPLTKKEKKVLQKILEQKEKKSQRAEMLQKLSEVQASEAEMRLFYTTSKLGTGNRMYHTKEKADEVVAPGQEKISSLSGAHRKRRRWPSAEEEEEEEEESESELEEESELDEDPAAEPAEAGVGTTVAPLPPAPAPSSQPVPAGMTVPPPPAAAPPLPRALAKPAVFIPVNRSPEMQEERLKLPILSEEQVIMEAVAEHPIVIVCGETGSGKTTQVPQFLYEAGFSSEDSIIGVTEPRRVAAVAMSQRVAKEMNLSQRVVSYQIRYEGNVTEETRIKFMTDGVLLKEIQKDFLLLRYKVVIIDEAHERSVYTDILIGLLSRIVTLRAKRNLPLKLLIMSATLRVEDFTQNPRLFAKPPPVIKVESRQFPVTVHFNKRTPLEDYSGECFRKVCKIHRMLPAGGILVFLTGQAEVHALCRRLRKAFPPSRARPQEKDDDQKDSVEEMRKFKKSRARAKKARAEVLPQINLDHYSVLPAGEGDEDREAEVDEEEGALDSDLDLDLGDGGQDGGEQPDASLPLHVLPLYSLLAPEKQAQVFKPPPEGTRLCVVATNVAETSLTIPGIKYVVDCGKVKKRYYDRVTGVSSFRVTWVSQASADQRAGRAGRTEPGHCYRLYSSAVFGDFEQFPPPEITRRPVEDLILQMKALNVEKVINFPFPTPPSVEALLAAEELLIALGALQPPQKAERVKQLQENRLSCPITALGRTMATFPVAPRYAKMLALSRQHGCLPYAITIVASMTVRELFEELDRPAASDEELTRLKSKRARVAQMKRTWAGQGASLKLGDLMVLLGAVGACEYASCTPQFCEANGLRYKAMMEIRRLRGQLTTAVNAVCPEAELFVDPKMQPPTESQVTYLRQIVTAGLGDHLARRVQSEEMLEDKWRNAYKTPLLDDPVFIHPSSVLFKELPEFVVYQEIVETTKMYMKGVSSVEVQWIPALLPSYCQFDKPLEEPAPTYCPERGRVLCHRASVFYRVGWPLPAIEVDFPEGIDRYKHFARFLLEGQVFRKLASYRSCLLSSPGTMLKTWARLQPRTESLLRALVAEKADCHEALLAAWKKNPKYLLAEYCEWLPQAMHPDIEKAWPPTTVH [DHX37] | 0.32 | 0.922 | 0.635 | 50.3 °C |  | -1
